Assay results: PMC8575500

target: C12-AcpP (Escherichia coli acyl carrier protein AcpP, wt, carrying a C12 acyl chain) (Escherichia coli) (UniProt P0A6A8)
Chain of UniProt P0A6A8 (P0A6A8 whole entry): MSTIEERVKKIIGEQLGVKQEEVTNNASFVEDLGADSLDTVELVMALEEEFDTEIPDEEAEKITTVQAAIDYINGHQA

Row | completion of the reaction after 10 min, from the remaining C12-AcpP by HPLC [%] | Substance
1 | 15 | Escherichia coli FabF K65A/R68A/K69A (enzyme)
2 | 44 | Escherichia coli FabF K65A/R127A/K128A (enzyme)
3 | 65 | Escherichia coli FabF K65A/K69A (enzyme)
4 | 13 | Escherichia coli FabF R127A/K128A/R206A (enzyme)
5 | 39 | Escherichia coli FabF R206A (enzyme)
